Reference: patent US20240352434, “COMPOSITIONS COMPRISING A VARIANT CAS12I3 POLYPEPTIDE AND USES THEREOF” (Arbor Biotechnologies, Inc., published 2024)

T1: Cas12i3 S536R N711R S801R (Unidentified, S536R,N711R,S801R)
T1 chain: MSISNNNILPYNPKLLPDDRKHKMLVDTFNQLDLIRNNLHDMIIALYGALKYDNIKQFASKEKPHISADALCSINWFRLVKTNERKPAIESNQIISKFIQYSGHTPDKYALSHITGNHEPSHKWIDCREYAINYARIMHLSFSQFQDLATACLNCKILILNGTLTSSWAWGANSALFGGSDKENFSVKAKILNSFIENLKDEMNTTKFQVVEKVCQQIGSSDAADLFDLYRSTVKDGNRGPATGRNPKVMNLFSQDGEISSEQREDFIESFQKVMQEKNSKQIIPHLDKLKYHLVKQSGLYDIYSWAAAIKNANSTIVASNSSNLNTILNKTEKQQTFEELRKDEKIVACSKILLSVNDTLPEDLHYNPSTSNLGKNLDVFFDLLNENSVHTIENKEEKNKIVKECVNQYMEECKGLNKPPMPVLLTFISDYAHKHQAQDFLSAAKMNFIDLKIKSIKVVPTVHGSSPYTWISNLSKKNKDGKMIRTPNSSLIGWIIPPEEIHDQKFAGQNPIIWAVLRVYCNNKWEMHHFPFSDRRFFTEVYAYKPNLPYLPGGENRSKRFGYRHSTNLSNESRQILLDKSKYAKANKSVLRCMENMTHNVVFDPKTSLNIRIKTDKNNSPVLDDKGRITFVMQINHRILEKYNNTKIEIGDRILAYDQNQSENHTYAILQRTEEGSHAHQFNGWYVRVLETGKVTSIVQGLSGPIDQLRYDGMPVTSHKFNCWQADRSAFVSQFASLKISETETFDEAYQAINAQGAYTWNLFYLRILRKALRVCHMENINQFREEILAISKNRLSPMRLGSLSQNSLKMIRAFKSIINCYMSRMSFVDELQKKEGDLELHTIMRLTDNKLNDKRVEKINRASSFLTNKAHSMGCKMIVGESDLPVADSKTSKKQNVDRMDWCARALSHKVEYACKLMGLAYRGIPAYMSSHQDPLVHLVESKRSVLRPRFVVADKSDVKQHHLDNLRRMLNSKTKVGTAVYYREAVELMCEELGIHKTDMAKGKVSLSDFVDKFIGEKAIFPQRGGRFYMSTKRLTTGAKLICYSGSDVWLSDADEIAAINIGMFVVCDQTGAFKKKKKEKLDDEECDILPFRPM

T2: Cas12i3 T977R (Unidentified, T977R)
T2 chain: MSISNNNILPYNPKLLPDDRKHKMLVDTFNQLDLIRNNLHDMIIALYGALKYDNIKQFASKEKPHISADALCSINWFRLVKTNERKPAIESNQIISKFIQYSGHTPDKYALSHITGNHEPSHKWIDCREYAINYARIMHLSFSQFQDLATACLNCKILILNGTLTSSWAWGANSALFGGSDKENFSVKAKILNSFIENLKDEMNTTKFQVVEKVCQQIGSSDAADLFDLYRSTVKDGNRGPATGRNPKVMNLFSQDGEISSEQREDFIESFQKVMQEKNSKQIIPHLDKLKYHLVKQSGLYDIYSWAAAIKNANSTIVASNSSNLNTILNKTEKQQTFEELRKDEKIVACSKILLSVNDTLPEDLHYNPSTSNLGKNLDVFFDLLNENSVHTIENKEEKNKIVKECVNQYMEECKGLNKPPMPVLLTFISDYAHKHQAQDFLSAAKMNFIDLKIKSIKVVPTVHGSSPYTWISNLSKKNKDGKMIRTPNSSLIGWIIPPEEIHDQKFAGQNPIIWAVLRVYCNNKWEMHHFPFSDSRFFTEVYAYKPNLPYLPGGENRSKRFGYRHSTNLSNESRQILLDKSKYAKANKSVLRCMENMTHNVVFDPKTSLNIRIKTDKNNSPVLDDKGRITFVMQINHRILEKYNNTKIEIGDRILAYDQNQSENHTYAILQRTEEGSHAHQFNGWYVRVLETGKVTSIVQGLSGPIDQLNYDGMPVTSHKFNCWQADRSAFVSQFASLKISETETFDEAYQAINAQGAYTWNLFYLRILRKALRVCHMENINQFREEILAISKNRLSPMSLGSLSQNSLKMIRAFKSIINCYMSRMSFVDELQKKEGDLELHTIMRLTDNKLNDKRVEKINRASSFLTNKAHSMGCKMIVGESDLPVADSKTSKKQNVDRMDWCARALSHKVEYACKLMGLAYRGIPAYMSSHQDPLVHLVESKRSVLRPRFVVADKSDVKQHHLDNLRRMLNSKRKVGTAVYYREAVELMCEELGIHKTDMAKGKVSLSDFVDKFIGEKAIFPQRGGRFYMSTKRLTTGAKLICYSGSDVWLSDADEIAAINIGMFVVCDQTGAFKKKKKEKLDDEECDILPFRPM

B1: EMX1_T5 crRNA ; EMX1_T5 target (ssRNA ; dsDNA)
RNA: AUAGUGUGUCCUUAGUUGACAUUAUUAUUCCCAUAGGGAAGG
DNA 1: TATTATTCCCATAGGGAAGG
DNA 2: CCTTCCCTATGGGAATAATA
B2: VEGFA_T2 crRNA ; VEGFA_T2 target (ssRNA ; dsDNA)
RNA: AUAGUGUGUCCUUAGUUGACAUAAUCCUCCACCAGUCAUGGU
DNA 1: AATCCTCCACCAGTCATGGT
DNA 2: ACCATGACTGGTGGAGGATT
B3: AAVS1_T3 crRNA ; AAVS1_T3 target (ssRNA ; dsDNA)
RNA: AUAGUGUGUCCUUAGUUGACAUGUGAGAAUGGUGCGUCCUAG
DNA 1: GTGAGAATGGTGCGTCCTAG
DNA 2: CTAGGACGCACCATTCTCAC

Tests used:
[1] = biological target: T1, Cas12i3 S536R N711R S801R; assay: cell_activity; fold change in % indels, HEK293T; PAM not stated in example
Description: (§1) Approximately 16 hours prior to transfection, 100 μl of 25,000 HEK293T cells in DMEM/10% FBS+Pen/Strep were plated into each well of a 96-well plate. On the day of transfection, the cells were 70-90% confluent. For each well to be transfected, a mixture of 0.5 μl of Lipofectamine 2000 and 9.5 μl of Opti-MEM was prepared and then incubated at room temperature for 5-20 minutes (Solution 1). […] In the case of negative controls, the crRNA was not included in Solution 2. The solution 1 and solution 2 mixtures were mixed by pipetting up and down and then incubated at room temperature for 25 minutes. Following incubation, 20 μL of the Solution 1 and Solution 2 mixture were added dropwise to each well of a 96 well plate containing the cells. 72 hours post transfection, cells are trypsinized by adding 10 μL of TrypLE to the center of each well and incubated for approximately 5 minutes. 100 μL of D10 media was then added to each well and mixed to resuspend cells. The cells were then spun down at 500 g for 10 minutes, and the supernatant was discarded. QuickExtract buffer was added to ⅕ the amount of the original cell suspension volume. Cells were incubated at 65° C. for 15 minutes, 68° C. for 15 minutes, and 98° C. for 10 minutes.
(§2) Samples for Next Generation Sequencing were prepared by two rounds of PCR. The first round (PCR1) was used to amplify specific genomic regions depending on the target. PCR1 products were purified by column purification. Round 2 PCR (PCR2) was done to add Illumina adapters and indexes. Reactions were then pooled and purified by column purification. Sequencing runs were done with a 150 cycle NextSeq v2.5 mid or high output kit.

Cas12i3 T977R = biological target: T2, Cas12i3 T977R; assay: as above
Description: as §1, §2

| Binder | binding signal [1] | binding signal (Cas12i3 T977R) |
| --- | --- | --- |
| B1 | 1.68 fold of wild-type | 1.04 fold of wild-type |
| B2 | 2.55 fold of wild-type | 1.35 fold of wild-type |
| B3 | 2.1 fold of wild-type | 2.37 fold of wild-type |
